Results taken from the RNAGym collection of RNA variant scans (doi:10.1073/pnas.2313332121).

B1: TPR t1 (parent)
chain: GACCAAUCUGCCCUCAGAGCUCGAGAACAUCUUCGGAUGCAGAGGAGGCAGGCUUCGGUGGCGCGAUAGCGCCAACGUCCUCAACCUCCAAUGCAUCCCACCACAUGAUGAUGCCUGAAGAGCCUUGGUUUUUUG

Variants of: B1
Test: polymerase ribozyme fitness, log enrichment relative to wild type (log ratio); higher = more active; in vitro selection for triplet polymerase activity
Outline: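 Libraries of mutants in each subunit of a heterodimeric triplet polymerase ribozyme were generated by PCR and transcribed. In triplicate, each went through one in vitro selection round: annealing with biotinylated primer, partner subunit and triplets; frozen incubation at −7 °C; gel excision of extended constructs; streptavidin-bead capture; RT-PCR. Fitness, taken from Illumina sequencing of input and output libraries, is the logarithm of a genotype's enrichment over wild-type enrichment, averaged across replicates with inverse-variance weights. The logarithm is base 2, and genotypes needed ≥10 input reads and ≥1 read per output to be kept.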

Going from C12U C22G G45A G71A C94U C99U to G35A U55A U78G C89U A91C C124A U126G G128U, the “polymerase ribozyme fitness (log ratio)” value falls from -4.76 to -6.76.

First: A41G A68G C82U
Second: G42A A46U G48A G63A A118U
The “polymerase ribozyme fitness (log ratio)” value of the first is lower: -5.28 for the first, -3.82 for the second.

First: G39U C123G
Second: C40U A43C G93C C115A
The “polymerase ribozyme fitness (log ratio)” value of the first is higher: 0.0216 for the first, -2.74 for the second.

First: C22G G61U C124A
Second: C4A C124A
The “polymerase ribozyme fitness (log ratio)” value of the first is lower: -1.97 for the first, -0.256 for the second.

First: G39A G51U
Second: C56U C64U
The “polymerase ribozyme fitness (log ratio)” value of the first is lower: -3.49 for the first, -1.54 for the second.

First: U9A A90U U96C U106A G128C
Second: U7A C12A C20A G42U
The “polymerase ribozyme fitness (log ratio)” value of the first is lower: -5.11 for the first, -3.2 for the second.

First: A18C C20U A84C U96C G117U G127A
Second: C11G A27U C49A G61C A75U A84G
The “polymerase ribozyme fitness (log ratio)” value of the first is lower: -5.53 for the first, -3.81 for the second.

Compared with A100C G120U U125C, G39C C97A is lower in “polymerase ribozyme fitness (log ratio)” value: -0.56 for the first, -5.8 for the second.

Compared with G17C C56U, C12A G69A is higher in “polymerase ribozyme fitness (log ratio)” value: -3.79 for the first, -2.89 for the second.

First: G60C A66G
Second: G58C C82G U87G G93C C123A
The “polymerase ribozyme fitness (log ratio)” value of the first is lower: -1.22 for the first, -0.69 for the second.

First: U7G C13G
Second: A5U U129A
The “polymerase ribozyme fitness (log ratio)” value of the first is higher: 0.14 for the first, -1.34 for the second.

Going from C20A U32A to G57C C97U G110U C115U, the “polymerase ribozyme fitness (log ratio)” value falls from -3.55 to -6.98.

Compared with C8U G17A, C22A A43U U106C C114U is lower in “polymerase ribozyme fitness (log ratio)” value: -2.57 for the first, -4.24 for the second.

Going from U33A A46C G69U to C73U C97U C102A U130C, the “polymerase ribozyme fitness (log ratio)” value falls from -0.918 to -2.5.

Going from C8G C114U C123A to U14A G57A G61A A90G C124A, the “polymerase ribozyme fitness (log ratio)” value rises from -0.55 to 1.08.

C73U G113A and G120U U132A are within 0.2 log units of each other in “polymerase ribozyme fitness (log ratio)” value: -0.0568 for the first, 0.126 for the second.

Compared with U9G A16G C73G G110A U132A, A74U C101U G113A C123G is higher in “polymerase ribozyme fitness (log ratio)” value: -2.97 for the first, -1.64 for the second.

Going from C53U U59C to U7C G48U A50G C89U, the “polymerase ribozyme fitness (log ratio)” value falls from -0.508 to -1.26.

Compared with G58C C124A, G47A U78C C88A C97A U106A is lower in “polymerase ribozyme fitness (log ratio)” value: 1.82 for the first, -5.69 for the second.

Going from A75U C76G C88A A90U C114U to A18C G45A C49G G61A U133A, the “polymerase ribozyme fitness (log ratio)” value falls from -2.85 to -4.6.

First: C64A G113C A118G
Second: C15G C70U
The “polymerase ribozyme fitness (log ratio)” value of the first is lower: -6.38 for the first, -3.1 for the second.

First: A6C G19A A41C C70A
Second: A18C G39C A41U C123U
The “polymerase ribozyme fitness (log ratio)” value of the first is lower: -4.25 for the first, -2.25 for the second.

Compared with A68U U130C, A111C U112G G113U U116A C124A is higher in “polymerase ribozyme fitness (log ratio)” value: -5.02 for the first, -3.18 for the second.

Compared with A5G C15G U32A G63U U112C A119U, U32A G47U C72U A83U is lower in “polymerase ribozyme fitness (log ratio)” value: -5.37 for the first, -5.74 for the second.

First: A43U C94A
Second: A16G G71U C123U
The “polymerase ribozyme fitness (log ratio)” value of the first is lower: -1.82 for the first, -0.364 for the second.

Going from C56G C79U to C80G U132C, the “polymerase ribozyme fitness (log ratio)” value falls from -0.342 to -4.66.

First: U9G C11U C53U U81A
Second: A2C G63U
The “polymerase ribozyme fitness (log ratio)” value of the first is higher: -0.54 for the first, -2.33 for the second.

Compared with C15U A27U, A43G C62U C72A G113C is higher in “polymerase ribozyme fitness (log ratio)” value: -4.81 for the first, -2.93 for the second.

Going from A16C C56G to G61C C89A, the “polymerase ribozyme fitness (log ratio)” value falls from -2.73 to -3.5.

Compared with G60C U131A, G45C C115A U130C is lower in “polymerase ribozyme fitness (log ratio)” value: -1.69 for the first, -2.49 for the second.

Compared with G42U G110U, A41U C53G C62G A84U U112A is lower in “polymerase ribozyme fitness (log ratio)” value: -3.71 for the first, -4.47 for the second.

Compared with A6U C11G G48U C56U C64U A83C, A26G G60C C86G is higher in “polymerase ribozyme fitness (log ratio)” value: -4.78 for the first, -3.98 for the second.

First: C79A U129A
Second: A37G A84C
The “polymerase ribozyme fitness (log ratio)” value of the first is lower: -2.44 for the first, -0.444 for the second.

Compared with C4G C8A C20G A111C C123G, A43U U54A C73U G77C is higher in “polymerase ribozyme fitness (log ratio)” value: -4.96 for the first, -1.92 for the second.

Compared with C15A G61U C89U G122U C124G G135A, G52A G60U C104G is lower in “polymerase ribozyme fitness (log ratio)” value: -0.759 for the first, -7.51 for the second.

Compared with U14G G110A U130A, A50C C73A U78G A90G is higher in “polymerase ribozyme fitness (log ratio)” value: -3.04 for the first, -1.98 for the second.

First: U7G G17U C28U A90C U106A
Second: U7A A29U C72U U106A
The “polymerase ribozyme fitness (log ratio)” value of the first is lower: -2.82 for the first, -1.06 for the second.

First: C72G U106A
Second: U14G C80U C102U C123G
The “polymerase ribozyme fitness (log ratio)” value of the first is higher: -0.511 for the first, -1.69 for the second.

First: C86U G120A U130C G135U
Second: C15U C86U C102A
The “polymerase ribozyme fitness (log ratio)” value of the first is higher: -0.0631 for the first, -4.01 for the second.

Going from G77U C115G G128C to U78G C88U U92G G120C U134G, the “polymerase ribozyme fitness (log ratio)” value rises from -2.98 to -1.71.

Going from A111G G113U U129G U131A to G47A C102A, the “polymerase ribozyme fitness (log ratio)” value rises from -6.64 to -2.65.

First: A5U C49A A95G
Second: A18U C72G
The “polymerase ribozyme fitness (log ratio)” value of the first is higher: -0.603 for the first, -2.48 for the second.
